From patent US20250084172A1 (23ANDME, published 2025)
Numbering of substitutions follows the chain as printed.

T1: human soluble ULBP6 haplotype 02 (hULBP6_02) (human, UniProt Q5VY80 26-218)
T1 chain: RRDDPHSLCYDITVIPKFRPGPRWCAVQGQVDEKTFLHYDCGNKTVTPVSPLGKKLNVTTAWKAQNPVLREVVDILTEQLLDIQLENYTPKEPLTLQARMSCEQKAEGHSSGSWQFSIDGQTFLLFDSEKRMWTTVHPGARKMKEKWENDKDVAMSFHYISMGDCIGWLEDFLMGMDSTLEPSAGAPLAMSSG

T2: cynomolgus soluble ULBP2/6 (cULBP2/6) (cynomolgus, UniProt Q5VY80 28-217 (human entry), limits assumed)
T2 construct: also called cyno ULBP6; Cyno-cULBP2/6
T2 chain: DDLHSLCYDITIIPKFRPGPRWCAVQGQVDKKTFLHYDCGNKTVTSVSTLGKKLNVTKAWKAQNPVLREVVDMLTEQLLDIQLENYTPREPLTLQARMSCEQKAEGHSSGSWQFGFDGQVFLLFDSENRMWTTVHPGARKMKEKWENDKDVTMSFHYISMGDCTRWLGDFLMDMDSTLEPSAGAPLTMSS

T3: cynomolgus soluble ULBP5 (cULBP5) (cynomolgus)
T3 construct: also called Cyno-cULBP5
T3 chain: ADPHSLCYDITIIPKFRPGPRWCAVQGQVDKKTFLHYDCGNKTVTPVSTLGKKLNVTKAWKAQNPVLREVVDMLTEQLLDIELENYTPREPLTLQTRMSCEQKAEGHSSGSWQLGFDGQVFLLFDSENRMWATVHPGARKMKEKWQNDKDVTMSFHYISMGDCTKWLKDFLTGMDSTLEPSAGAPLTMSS

T4: human soluble ULBP6 haplotype 01 (hULBP6_01) (human, UniProt Q5VY80 27-218, limits assumed)
T4 construct: also called sULBP6_01
T4 chain: T1 chain with R1G, L81R, T122I

T5: human soluble ULBP2 (hULBP2) (human, UniProt Q9BZM5 26-216)
T5 construct: also called sULBP2
T5 sequence: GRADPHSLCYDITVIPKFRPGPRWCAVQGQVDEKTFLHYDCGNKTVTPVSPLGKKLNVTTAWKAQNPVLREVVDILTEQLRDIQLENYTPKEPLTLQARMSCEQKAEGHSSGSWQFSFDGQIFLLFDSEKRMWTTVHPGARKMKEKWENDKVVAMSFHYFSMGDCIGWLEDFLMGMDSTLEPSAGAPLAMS

T6: cell surface ULBP6_01 on COV644 cells (human, UniProt Q5VY80 27-218)
T6 construct: whole, on cells; also called cell surface ULBP6 (COV644)
T6 chain: T1 chain with R1G, L81R, T122I

T7: cell surface ULBP6_02 on PANC02.13 cells (human, UniProt Q5VY80 26-218)
T7 construct: whole, on cells; also called cell surface ULBP6 (PANC02.13)
T7 chain: T1 chain

B1: humanized 7B3 (h7B3), Fc version not stated (antibody, V domains shown)
VH: EVQLVESGGGLVQPGGSLRLSCAASGFTFSTYGFHWVRQAPGKGLEWVAYISSNSGTIDYADTVKGRFTISRDNAKNSLYLQMNSLRAEDTAVYYCARQGYGFDNWGQGTTVTVSS
VL: DIQLTQSPSSLSASVGDRVTITCSASSRVSYMNWYQQKPGKSPKIWVYGISNLASGVPSRFSGSGSGTDFTFTISSLQPEDIATYYCQQRSSHPLTFGGGTKVEIK
notes: Recombinant humanized antibody, hIgG1 backbone with kappa light chain; also called hu7B3; PUR3922
B2: humanized 8E8 (h8E8), Fc version not stated (antibody, V domains shown)
VH: QVQLVQSGAEVKKPGSSVKVSCKASGYTFTTYGITWVRQAPGQGLEWIGEIYPGTATSYSNERFKGRATLTADRSTSTAYMELSSLRSEDTAVYFCARRGTYGTYEWYFDVWGRGTLVTVSS
VL: DIQMTQSPSSLSASVGDRVTITCRASENIYSHLAWYQQKPGKSPKLLVYAATNLADGVPSRFSGSGSGTDYTLTISSLQPEDFATYYCQHFWGTPWTFGGGTKVEIK
notes: also called hu8E8; PUR3924
B3: human ULBP6 displayed on M13 phage (ULBP6-HA-pIII) (other)
chain: RRDDPHSLCYDITVIPKFRPGPRWCAVQGQVDEKTFLHYDCGNKTVTPVSPLGKKLNVTMAWKAQNPVLREVVDILTEQLLDIQLENYTPKEPLTLQARMSCEQKAEGHSSGSWQFSIDGQTFLLFDSEKRMWTTVHPGARKMKEKWENDKDVAMSFHYISMGDCIGWLEDFLMGMDSTLEPSAGAPLAMSSGYPYDVPDYA
notes: also called ULBP6 phage; not shown: M13 minor coat protein pIII

Key:
[1] = biological target: T1, human soluble ULBP6 haplotype 02 …; test: cell-based or functional assay
[2] = biological target: T1, human soluble ULBP6 haplotype 02 …; test: cell-based or functional assay
[3] = biological target: T1, human soluble ULBP6 haplotype 02 …; test: SPR (BIACORE 8K, 37 C); antibody captured on Protein A, soluble ULBP injected;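 note: ligand injected as threefold dilution series in HBS-P (highest 10 or 50 nM), reference-cell and buffer-subtracted sensorgrams fitted with a 1:1 Langmuir model for on and off rates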
[4] = biological target: T2, cynomolgus soluble ULBP2/6 (cULBP2/6); test: as above
[5] = biological target: T3, cynomolgus soluble ULBP5 (cULBP5); test: as above
[6] = biological target: T4, human soluble ULBP6 haplotype 01 …; test: as above
[7] = biological target: T5, human soluble ULBP2 (hULBP2); test: as above
[8] = biological target: T6, cell surface ULBP6_01 on COV644 cells; test: flow cytometry on COV644 cells, anti-hFc-APC detection, average of 2 replicates
[9] = biological target: T7, cell surface ULBP6_02 on PANC02.13 cells; test: flow cytometry on PANC02.13 cells, anti-hFc-APC detection, average of 2 replicates
[10] = biological target: T6, cell surface ULBP6_01 on COV644 cells; test: flow cytometry; blocking of hNKG2D-mFc binding to COV644 cells, average of 2 replicates
[11] = biological target: B3; test: phage ELISA: plate coated with the antibody, ULBP6 phage titrated in 3-fold steps from 1.0 O.D./mL, HRP anti-M13 detection, O.D. 450
[12] = biological target: T1, human soluble ULBP6 haplotype 02 …; test: Biacore binding to ULBP6_02 (SPR)
anti-HA antibody = test: phage ELISA: plate coated with anti-HA antibody, phage titrated in 3-fold steps from 1.0 O.D./mL, HRP anti-M13 detection, O.D. 450
[13] = biological target: hNKG2D-Fc (human NKG2D 78-216 with C-terminal long huFc-Flag tag) (human); test: phage ELISA: plate coated with the ULBP6 receptor NKG2D (PUR4928, construct not stated), phage titrated in 3-fold steps from 1.0 O.D./mL, HRP anti-M13 detection, O.D. 450
Sequence of hNKG2D-Fc (human NKG2D 78-216 with C-terminal long huFc-Flag tag) (human) (chain, as listed by the source limits assumed): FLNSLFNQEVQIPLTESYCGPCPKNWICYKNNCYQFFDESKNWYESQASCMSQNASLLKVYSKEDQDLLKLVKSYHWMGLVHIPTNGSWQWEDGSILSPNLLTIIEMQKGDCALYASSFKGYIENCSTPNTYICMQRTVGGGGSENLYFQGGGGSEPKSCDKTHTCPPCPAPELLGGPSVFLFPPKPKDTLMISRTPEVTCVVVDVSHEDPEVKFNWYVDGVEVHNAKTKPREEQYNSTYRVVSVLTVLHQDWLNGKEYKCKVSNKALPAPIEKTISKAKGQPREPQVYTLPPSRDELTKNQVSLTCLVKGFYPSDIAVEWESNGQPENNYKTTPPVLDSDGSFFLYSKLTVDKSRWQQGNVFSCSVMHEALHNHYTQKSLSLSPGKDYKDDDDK

With B1 the “EC50 (read off the curve); NKG2D MFI on primed PBMCs with 50 nM sULBP6_02” value [1] was about 20 nM, the “EC50 (read off the curve); IFNg secretion of primed PBMCs on plate-bound MICA with 50 nM sULBP6_02” value [2] was about 1 nM and the Kd [3] was 0.255 nM. For the same binder, the koff [3] was 0.000379 s⁻¹, the kon [3] was 1.48e+06 M⁻¹ s⁻¹ and the Kd [4] was 0.377 nM. For the same binder, the koff [4] was 0.000542 s⁻¹, the kon [4] was 1.44e+06 M⁻¹ s⁻¹ and the Kd [5] was 6.13 nM. The koff [5] was 0.0034 s⁻¹, the kon [5] was 554000 M⁻¹ s⁻¹ and the Kd [6] was 0.263 nM. For the same binder, the koff [6] was 0.000382 s⁻¹, the kon [6] was 1.45e+06 M⁻¹ s⁻¹ and the Kd [7] was 0.673 nM. The koff [7] was 0.000507 s⁻¹, the kon [7] was 753000 M⁻¹ s⁻¹ and the EC50 [8] was 1.93 nM. For the same binder, the EC50 [9] was 1.97 nM, the IC50 [10] was 0.17 nM and the “EC50 (read off the curve)” value [11] was ~0.006 O.D. (phage).

In the case of B2, the “IC50 (read off the curve); fall of NKG2D MFI on primed PBMCs with 50 nM sULBP6_02” value [1] is reported as about 3 nM and the Kd [12] is reported as 1.56 nM.

With B3 the “EC50 (read off the curve)” value (anti-HA antibody) was ~0.01 O.D. (phage) and the “EC50 (read off the curve)” value [13] was ~0.01 O.D. (phage).
